From patent US20140056907A1 (Regeneron, published 2014)
Where a chain is given by its changes, count along the chain named. In names and notes the source's numbering stands.

B1: H2M7103N (antibody, V domains shown)
VH: EVQLVESGGGLVQPGGSLKLSCAASGFTFSSFWMSWVRQAPGKGLEWVANIKQNGSETYYVDSVKGRFTISRDNTKNSLYLQMNSLRAEDTAIYYCARGGRIQLWSSWFDPWGQGTLVTVSS
VL: DIQMTQSPSSLSASVGDRVTITCRASQSIKNYLNWYQQKSGKAPKLLIYAASSLQSGVPSRVSGSGSGTDFTLTISSLHPEDFAAYYCQQSFSAPLTFGGGTKVEIK
notes: Chimeric: human variable, mouse constant domains; Fc isotype not spelled out; also called H2bM7103N
B2: H3M6720N (antibody, V domains shown)
VH: B1 VH
VL: AIQMTQSPSSLSASVGDRVTITCRASQGISNDLGWYQQKPGKAPKLLIYGASSLQTGVPSRFSGSGSGTDFTLTISSLQPEDFATYYCLQDFNYPYTFGQGTKLEIK
notes: Chimeric: human variable, mouse constant domains; H3M prefix marks the Fc, isotype not spelled out
B3: H4H6381P (antibody, human IgG4, V domains shown)
VH: QVQLVQSGAEVKKPGASVKVSCKASGYTFTSYGISWVRQAPGQGLEWMGWISAYNGNTNYAQKLQGRVTMTTDTSTSTAYMELRSLRSDDTAVYYCARDGSYSWFDPWGQGTLVTVSS
VL: not shown
B4: H3M6721N (antibody, V domains shown)
VH: EVQLLASGGGLVQPGGSLRLSCAASGFTFSSFAMSWVRQAPGKGLEWVSGISGSGVSTYYADSVKGRFTISRDNSKNTLYLQMNSLRAEDTAAYYCAKEAYKWQPWGQGIRVTVSS
VL: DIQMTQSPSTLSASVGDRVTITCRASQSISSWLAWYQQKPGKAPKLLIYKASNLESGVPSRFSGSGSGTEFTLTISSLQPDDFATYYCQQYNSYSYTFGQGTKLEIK
notes: as for B2
B5: H4H6362P (antibody, V domains shown)
VH: QVQLVESGGGVVQPGRSLRLSCEASGFTFGSYGMHWVRQAPGKGLEWMAVISYDGNSRYSADSVKGRFTISRDNSKNTLYLQMNSLRAEDTALYYCAKENHIAARRPGGLDVWGQGTTVTVSS
VL: DIQMTQSPSSLSASVGDRVTITCRASQGISIYLAWYQQKPGKVPKLLIYAASSLQSGVPSRFSGSGSGTDFTLTISSLQPEDVATYFCQNYNIAPWTLGQGTKVEIK

How the values were obtained:
[1] = molecular target: T1, human ASIC1 (human, UniProt P78348 1-528); experiment: cell-based or functional assay
T1 sequence: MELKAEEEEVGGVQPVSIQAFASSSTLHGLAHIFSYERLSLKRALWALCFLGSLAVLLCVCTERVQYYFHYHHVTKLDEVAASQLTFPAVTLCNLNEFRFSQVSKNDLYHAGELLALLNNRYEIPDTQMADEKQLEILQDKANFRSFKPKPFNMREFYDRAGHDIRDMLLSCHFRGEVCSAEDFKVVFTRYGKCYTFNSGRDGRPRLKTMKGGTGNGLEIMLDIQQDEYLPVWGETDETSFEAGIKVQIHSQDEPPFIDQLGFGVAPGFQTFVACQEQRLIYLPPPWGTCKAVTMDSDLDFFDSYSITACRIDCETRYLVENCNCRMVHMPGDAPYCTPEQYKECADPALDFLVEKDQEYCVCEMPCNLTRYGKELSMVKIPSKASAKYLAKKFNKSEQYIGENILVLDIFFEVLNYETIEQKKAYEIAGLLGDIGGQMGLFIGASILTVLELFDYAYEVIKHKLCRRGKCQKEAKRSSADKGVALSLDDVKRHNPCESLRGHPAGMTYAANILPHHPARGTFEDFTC

[2] = molecular target: T2, mouse ASIC1a (mouse, UniProt Q6NXK8 1-526); experiment: cell-based or functional assay
T2 sequence (looked up): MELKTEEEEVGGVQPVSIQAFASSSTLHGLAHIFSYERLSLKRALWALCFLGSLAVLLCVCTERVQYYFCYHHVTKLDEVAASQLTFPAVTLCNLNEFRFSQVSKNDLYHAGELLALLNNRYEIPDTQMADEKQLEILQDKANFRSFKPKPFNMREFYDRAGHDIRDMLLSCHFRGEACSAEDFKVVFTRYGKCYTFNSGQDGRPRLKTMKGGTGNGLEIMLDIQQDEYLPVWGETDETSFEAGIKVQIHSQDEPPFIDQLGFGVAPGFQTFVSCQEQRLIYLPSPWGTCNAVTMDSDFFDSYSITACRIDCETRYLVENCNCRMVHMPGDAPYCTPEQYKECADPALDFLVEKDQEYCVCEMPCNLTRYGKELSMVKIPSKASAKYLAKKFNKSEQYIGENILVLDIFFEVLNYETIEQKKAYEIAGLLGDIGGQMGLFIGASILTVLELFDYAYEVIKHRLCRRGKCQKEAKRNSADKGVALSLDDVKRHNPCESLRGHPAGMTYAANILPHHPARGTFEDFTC

[3] = molecular target: T1, human ASIC1; experiment: cell-based or functional assay; remark: listed apart in the source
[4] = molecular target: T3, rat ASIC1 (rat, UniProt P55926 1-526); experiment: FACS, undifferentiated ND7 cells
T3 construct: whole, on cells; ND7 is a fusion line of mouse neuroblastoma and rat dorsal root ganglia; also called rat ASIC1a
T3 sequence (looked up): T2 sequence (looked up) with N476S
Description: (§1) To further characterize anti-ASIC1 antibodies, their ability to bind either (a) a mouse fibroblast 3T3 cell line stably transfected to overexpress full length human ASIC1 (3T3/hASIC1; amino acids 1-528 of NCBI accession number NP_{—}001086.2 [SEQ ID NO:401]), (b) a 3T3 cell line stably transfected to over express full length mouse ASIC1a (3T3/mASIC1a; amino acids 1-526 of NCBI accession number NP_{—}033727), or (c) a ND7 cell line (ECACC, #92090903) that is a fusion cell line of mouse neuroblastoma and rat dorsal root ganglia that endogenously expresses rat ASIC1, was determined using flow cytometry (FACS). ND7 cells were differentiated by replacing the culture media with low-serum media (0.5% FBS) containing 1 mM dibutyryl-cAMP (Cat. No. sc-201567A, Santa Cruz Biotechnology, Inc., Santa Cruz, Calif.). FACS binding was tested for some antibodies on both undifferentiated ND7 cells and differentiated ND7 cells.
(§2) To perform the FACS binding experiments, adherent cells were collected using 1 mM EDTA in PBS, then washed, and re-suspended in cold PBS containing 5% FBS. For each binding experiment, each anti-ASIC1 antibody (at final concentrations of 10 nM of purified antibodies or 3.3 nM for antibody supernatants for binding to 3T3/hASIC1 cells and 5 nM for binding to 3T3/mASIC1a or ND7 cells) was added to 250,000 cells in 500 μL of PBS with 5% FBS. […] After incubating for 20 minutes on ice, the cells were washed and resuspended in PBS containing 5% FBS, then sorted and analyzed on a flow cytometer (FACSCalibur, BD Biosciences, San Jose, Calif.) to determine relative binding by the candidate antibodies to the tested cell lines. […] Percentage of ASIC1 signal over secondary antibody alone was calculated using FlowJo software (Tree Star, Ashland, Oreg.).

[5] = molecular target: T1, human ASIC1; experiment: FACS titration, 3T3/hASIC1 cells
Procedure: To perform the FACS binding experiments, adherent cells were collected using 1 mM EDTA in PBS, then washed, and re-suspended in cold PBS containing 5% FBS. For each binding experiment, each anti-ASIC1 antibody ([…] or ND7 cells) was added to 250,000 cells in 500 μL of PBS with 5% FBS. After incubation for 20 minutes at room temperature, a secondary antibody which recognizes human Fc (Cat. No. 109-136-098, Jackson ImmunoResearch Laboratories, Inc., West Grove, Pa.) or mouse Fc (Cat. No. 550826, BD Biosciences, San Jose, Calif.) and is conjugated to allophycocyanin, was then added to the cell mixture at a final concentration of 13.3 nM. After incubating for 20 minutes on ice, the cells were washed and resuspended in PBS containing 5% FBS, then sorted and analyzed on a flow cytometer (FACSCalibur, BD Biosciences, San Jose, Calif.) to determine relative binding by the candidate antibodies to the tested cell lines. Histograms of cells stained with anti-ASIC1 antibodies were compared with those of cells stained with secondary antibody alone. Percentage of ASIC1 signal over secondary antibody alone was calculated using FlowJo software (Tree Star, Ashland, Oreg.).

[6] = molecular target: T2, mouse ASIC1a; experiment: FACS, 3T3/mASIC1a cells
Description: as §1
To perform the FACS binding experiments, adherent cells were collected using 1 mM EDTA in PBS, then washed, and re-suspended in cold PBS containing 5% FBS. For each binding experiment, each anti-ASIC1 antibody (at final concentrations of 10 nM of purified antibodies or 3.3 nM for antibody supernatants for binding to 3T3/hASIC1 cells and 5 nM for binding to 3T3/mASIC1a or ND7 cells) was added to 250,000 cells in 500 μL of PBS with 5% FBS. After incubation for 20 minutes at room temperature, a secondary antibody which recognizes human Fc (Cat. No. 109-136-098, Jackson ImmunoResearch Laboratories, Inc., West Grove, Pa.) or mouse Fc (Cat. No. 550826, BD Biosciences, San Jose, Calif.) and is conjugated to allophycocyanin, was then added to the cell mixture at a final concentration of 13.3 nM. After incubating for 20 minutes on ice, the cells were washed and resuspended in PBS containing 5% FBS, then sorted and analyzed on a flow cytometer (FACSCalibur, BD Biosciences, San Jose, Calif.) to determine relative binding by the candidate antibodies to the tested cell lines. Histograms of cells stained with anti-ASIC1 antibodies were compared with those of cells stained with secondary antibody alone. Percentage of ASIC1 signal over secondary antibody alone was calculated using FlowJo software (Tree Star, Ashland, Oreg.).

[7] = molecular target: T1, human ASIC1; experiment: FACS, 3T3/hASIC1 cells
Description: as §1, with “FACS binding was tested for some antibodies on both undifferentiated ND7 cells and differentiated ND7 cells.” left out
as §2, with “containing” for “containing 5% FBS. For each binding experiment, each anti-ASIC1 antibody (at final concentrations of 10 nM of purified antibodies or 3.3 nM for antibody supernatants for binding to 3T3/hASIC1 cells and 5 nM for binding to 3T3/mASIC1a or ND7 cells) was added to 250,000 cells in 500 μL of PBS with”

[8] = molecular target: T1, human ASIC1; experiment: cell-based or functional assay; remark: listed apart in the source

Binder	apparent IC50, human ASIC1 current, Q-Patch [1]	apparent IC50, mouse ASIC1 current, Q-Patch [2]	Current inhibition (%) at 100 nM antibody, Q-Patch, pH 6.0 [3]	binding result [4]	EC50 [5]	binding result [6]	binding result [7]	FLIPR Dose Curve, pH 5.0 % Block [8]	FLIPR Dose Curve, pH 5.5 % Block [8]	FLIPR Dose Curve, pH 5.5 IC50 [8]
B1	≤ 10 nM	< 25 nM	92%	no binding (tested: 5 nM; gated lower than 1%)	1.7 nM	–	–	–	–	–
B2	≤ 10 nM	< 25 nM	82%	no binding (tested: 5 nM; gated lower than 1%)	1.1 nM	no binding (tested: 5 nM; gated lower than 1%)	–	–	–	–
B3	–	–	25%	–	–	–	no binding	–	–	–
B4	≤ 10 nM	< 25 nM	100%	no binding (tested: 5 nM; gated lower than 1%)	0.085 nM	–	–	25%	44%	0.3 nM
B5	–	–	29%	–	–	–	no binding	–	–	–
